Data reported in US20210324063A1 (KODIAK SCIENCES, published 2021).

Tests used:
[1] = target: T1, Histidine-tagged FcγRIIIa (UniProt P08637 17-208, limits assumed); assay: SPR (BIAcore T200), his-tagged receptor captured by anti-his antibody on a CM5 chip, antibody as analyte, single-cycle kinetics, 25 C
T1 construct: also called Fc gamma receptor IIIa; not shown: histidine tag
Procedure: (§1) Binding kinetics experiments were performed at 25° C. using a BIAcore T200. An anti-his antibody was immobilized on a CM5 chip. Histidine-tagged FcγRI and FcγRIIIa at a concentration of 0.5 μg/mL prepared in HBS-EP buffer (0.01M HEPES pH7.4, 0.15M NaCl, 3 mM EDTA, 0.005% Tween-20) were injected independently for 60-s using a flow rate of 5 μL/min in the active flow cell only. […] Antibody concentrations in the range of 0.48 to 300 nM were used for FcγRI and 7.8 nM to 2000 nM for FcγRIIIa. Following each run, flow cells were regenerated with a 60 s injection of 10 mM glycine pH 1.7 using a flow-rate of […]. Data was double referenced, using subtraction of both reference flow cell and blank cycles. Analysis was performed using BIA evaluation software.

[2] = target: T2, Histidine-tagged FcγRI (UniProt P12314 16-288, limits assumed); assay: as above
T2 construct: also called Fc gamma receptor I; not shown: histidine tag
T2 sequence (P12314 16-288 limits assumed): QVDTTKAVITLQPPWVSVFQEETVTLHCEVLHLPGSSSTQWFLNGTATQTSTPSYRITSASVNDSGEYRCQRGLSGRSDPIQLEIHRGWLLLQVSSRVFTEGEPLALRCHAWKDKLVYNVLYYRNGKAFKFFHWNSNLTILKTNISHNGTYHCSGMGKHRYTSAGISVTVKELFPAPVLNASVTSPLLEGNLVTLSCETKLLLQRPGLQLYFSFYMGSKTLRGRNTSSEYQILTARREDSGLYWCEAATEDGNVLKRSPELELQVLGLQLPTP
Procedure: as §1

[3] = target: T3, Purified human C1q (human, UniProt P02745 23-245; P02746 28-253; P02747 29-245); assay: ELISA: antibody coated on the plate in 1:2 titration, purified human C1q at 5 ug/mL, HRP anti-human C1q detection
T3 construct: also called human complement protein C1q
T3 sequence (P02745 23-245 limits assumed, chain 1 of 3): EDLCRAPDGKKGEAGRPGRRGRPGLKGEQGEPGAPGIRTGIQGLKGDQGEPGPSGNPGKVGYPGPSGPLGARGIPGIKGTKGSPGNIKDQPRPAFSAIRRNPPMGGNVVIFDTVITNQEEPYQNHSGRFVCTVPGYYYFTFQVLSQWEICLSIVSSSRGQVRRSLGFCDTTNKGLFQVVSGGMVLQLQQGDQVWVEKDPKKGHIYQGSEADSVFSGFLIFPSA
T3 sequence (P02746 28-253 limits assumed, chain 2 of 3): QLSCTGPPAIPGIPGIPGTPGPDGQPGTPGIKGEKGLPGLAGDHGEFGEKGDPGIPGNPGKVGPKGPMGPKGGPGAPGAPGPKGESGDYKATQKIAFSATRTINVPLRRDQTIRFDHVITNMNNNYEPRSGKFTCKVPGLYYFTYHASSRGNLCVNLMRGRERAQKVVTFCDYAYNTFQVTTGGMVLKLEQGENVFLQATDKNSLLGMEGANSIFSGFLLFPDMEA
T3 sequence (P02747 29-245 limits assumed, chain 3 of 3): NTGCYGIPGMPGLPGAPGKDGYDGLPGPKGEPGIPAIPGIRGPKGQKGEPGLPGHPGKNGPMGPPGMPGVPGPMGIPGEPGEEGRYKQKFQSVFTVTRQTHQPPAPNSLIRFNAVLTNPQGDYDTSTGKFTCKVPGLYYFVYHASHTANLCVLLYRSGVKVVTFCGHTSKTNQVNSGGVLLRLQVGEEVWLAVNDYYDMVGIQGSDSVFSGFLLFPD
Procedure: Complement engagement liabilities were assessed by C1q ELISA binding. The antibody panel was titrated 1:2 from a top concentration of 10 ug/mL in 1×PBS for overnight coating at 4 C. Plates were then blocked After a 2 hour blocking step in 1% BSA. Purified human C1q was then applied at 5 ug/mL in 1% BSA for 2 hours at room temperature followed by detection with HRP-conjugated anti-human C1q antibody and TMB development.

T1 sequence (P08637 17-208 limits assumed): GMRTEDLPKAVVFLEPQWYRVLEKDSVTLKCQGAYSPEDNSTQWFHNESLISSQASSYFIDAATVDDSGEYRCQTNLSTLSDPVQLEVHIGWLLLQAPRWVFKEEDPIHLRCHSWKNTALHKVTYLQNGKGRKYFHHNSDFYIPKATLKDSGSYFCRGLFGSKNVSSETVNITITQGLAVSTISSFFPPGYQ

B1: OG1950 (antibody, IgG1)
heavy: EVQLVESGGGLVQPGGSLRLSCAASGYDFTHYGMNWVRQAPGKGLEWVGWINTYTGEPTYAADFKRRFTFSLDTSKSTAYLQMNSLRAEDTAVYYCAKYPYYYGTSHWYFDVWGQGTLVTVSSASTKGPSVFPLAPSSKSTSGGTAALGCLVKDYFPEPVTVSWNSGALTSGVHTFPAVLQSSGLYSLSSVVTVPSSSLGTQTYICNVNHKPSNTKVDKKVEPKSCDKTHTCPPCPAPEAAGAPSVFLFPPKPKDTLMISRTPEVTCVVVDVSHEDPEVKFNWYVDGVEVHNAKTKPREEQYNSTYRVVSVLTVLHQDWLNGKEYKCKVSNKALPAPIEKTISKAKGQPREPQVYTLPPSREEMTKNQVSLTCLVKGFYPSDIAVEWESNGQPENNYKTTPPVLDSDGSFFLYSKLTVDKSRWQQGNVFSCSVMHEALHNHYTQKSLSCSPGK
light: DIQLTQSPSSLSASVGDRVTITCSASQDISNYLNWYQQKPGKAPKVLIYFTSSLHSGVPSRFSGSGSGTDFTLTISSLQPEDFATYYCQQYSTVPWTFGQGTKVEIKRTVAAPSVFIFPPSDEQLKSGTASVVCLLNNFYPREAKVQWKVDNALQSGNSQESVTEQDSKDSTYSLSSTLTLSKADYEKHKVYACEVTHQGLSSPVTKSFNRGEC
notes: also called anti-VEGF-A antibody with an L443C (EU numbering) mutation; unconjugated antibody
Q: Does B1 bind [1]?
A: Result: no binding (tested: 7.8 nM to 2000 nM)

Q: Does B1 bind [2]?
A: Result: no binding (tested: 0.48 to 300 nM)

Q: Does B1 bind [3]?
A: Result: binds

B2: Avastin (bevacizumab) (antibody, human IgG1, kappa)
heavy: not shown
light: not shown
notes: Commercial product
Q: Does B2 bind [3]?
A: Result: binds
